One test has as its target KIF14 901-1648 (UniProt Q15058). Description: GST pull-down of MBP-tagged fragment, western blot. The conditions noted are these: reference: fragment incubated without CDK1/cyclin B; sites S440.
For the next test, the target named is T1, GST::KIF14(901-1648) (UniProt Q15058 901-1648).
T1 construct: Cloned into pDEST15; source: E. coli, purified (glutathione sepharose 4B), kept on beads; not shown: GST, N-terminal, kept
T1 sequence (looked up): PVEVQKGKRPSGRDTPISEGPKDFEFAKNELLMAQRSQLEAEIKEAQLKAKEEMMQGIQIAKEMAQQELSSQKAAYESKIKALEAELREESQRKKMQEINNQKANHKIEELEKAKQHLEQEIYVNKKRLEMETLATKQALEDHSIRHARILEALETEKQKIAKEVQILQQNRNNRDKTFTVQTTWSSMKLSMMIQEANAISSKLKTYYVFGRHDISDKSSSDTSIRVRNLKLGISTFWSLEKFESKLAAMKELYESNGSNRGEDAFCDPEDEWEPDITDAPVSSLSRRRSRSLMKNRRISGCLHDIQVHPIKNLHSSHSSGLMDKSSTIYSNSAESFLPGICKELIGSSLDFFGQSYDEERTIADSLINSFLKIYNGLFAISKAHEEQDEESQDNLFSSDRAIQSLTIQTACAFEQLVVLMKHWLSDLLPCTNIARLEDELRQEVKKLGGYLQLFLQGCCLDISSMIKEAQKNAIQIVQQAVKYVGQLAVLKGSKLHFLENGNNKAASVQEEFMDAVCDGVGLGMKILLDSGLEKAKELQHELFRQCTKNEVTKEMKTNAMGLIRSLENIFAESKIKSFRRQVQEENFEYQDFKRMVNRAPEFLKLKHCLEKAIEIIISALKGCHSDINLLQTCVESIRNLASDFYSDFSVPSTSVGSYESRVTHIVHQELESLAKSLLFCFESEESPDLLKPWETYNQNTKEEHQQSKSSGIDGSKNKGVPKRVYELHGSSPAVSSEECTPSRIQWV
As to the kind of experiment: pull-down; GST-tagged KIF14 or MKLP1 fragment on glutathione sepharose beads, purified MBP::CIT-K fragment in solution (with or without prior incubation with CDK1/cyclin B or AURKB); NET-N+ buffer (50 mM Tris-HCl pH 7.4, 150 mM NaCl, 5 mM EDTA, 0.2% NP-40), 60 min at 4°C; washes with 250 mM NaCl; western blot. The conditions noted are these: both partners purified.

From article PMC13282566, “Regulation of Citron kinase by CDK1 and Aurora B regulates midbody formation and stability” (Journal of Cell Science, 2026) come the findings set out here.

Take “Citron kinase (CIT-K) 420-585 (from UniProt O14578-4) fragment incubated with CDK1/cyclin B”: the “binding against the reference” value in the test with KIF14 901-1648 is “same”.

B1: MBP::CIT-K(420-585) (domain or fragment, human, UniProt O14578-4 420-585, looked up)
chain: SYSKALGILGRSESVVSGLDSPAKTSSMEKKLLIKSKELQDSQDKCHKMEQEMTRLHRRVSEVEAVLSQKEVELKASETQRSLLEQDLATYITECSSLKRSLEQARMEVSQEDDKALQLLHDIREQSRKLQEIKEQEYQAQVEEMRLMMNQLEEDLVSARRRSDLY
notes: contains S440; numbering of UniProt O14578-4; Cloned into pKM596; also called MBP::CC1 fragment containing S440; source: E. coli, purified (amylose resin, eluted with maltose)
As for B1, the binding result in the test with GST::KIF14(901-1648) is recorded as “binds”.

B2: MBP::CIT-K(420-585) phosphorylated by CDK1/cyclin B (pS440) (domain or fragment, human, UniProt O14578-4 420-585, looked up)
chain: SYSKALGILGRSESVVSGLDSPAKTSSMEKKLLIKSKELQDSQDKCHKMEQEMTRLHRRVSEVEAVLSQKEVELKASETQRSLLEQDLATYITECSSLKRSLEQARMEVSQEDDKALQLLHDIREQSRKLQEIKEQEYQAQVEEMRLMMNQLEEDLVSARRRSDLY
modifications: phosphoserine at 440 (in vitro by CDK1/cyclin B, detected with the CIT-K pS440 antibody)
notes: numbering of UniProt O14578-4; source: E. coli, purified (amylose resin), then incubated with recombinant CDK1/cyclin B
Regarding B2, the binding result in the test with GST::KIF14(901-1648) is reported as “binds”.
